In patent US20230348603A1 (VERSEAU THERAPEUTICS, published 2023):

Columns and labels:
[1] = molecular target: T1, Human VSIG4-L-Fc (human); test: blocking ELISA, biotin-C3b on coated hVSIG4-L-Fc
T1 construct: also called hVSIG4-L-Fc; hVSIG4-L

[2] = molecular target: T1, Human VSIG4-L-Fc; test: blocking ELISA, biotin-iC3b on coated hVSIG4-L-Fc
[3] = molecular target: T2, Human VSIG4-L-His (human, UniProt Q9Y279 20-283); test: SPR (Biacore T200), Fab P.E. 1:5 over immobilised antigen
T2 construct: long isoform ECD with His tag; also called hVSIG4-L
T2 sequence: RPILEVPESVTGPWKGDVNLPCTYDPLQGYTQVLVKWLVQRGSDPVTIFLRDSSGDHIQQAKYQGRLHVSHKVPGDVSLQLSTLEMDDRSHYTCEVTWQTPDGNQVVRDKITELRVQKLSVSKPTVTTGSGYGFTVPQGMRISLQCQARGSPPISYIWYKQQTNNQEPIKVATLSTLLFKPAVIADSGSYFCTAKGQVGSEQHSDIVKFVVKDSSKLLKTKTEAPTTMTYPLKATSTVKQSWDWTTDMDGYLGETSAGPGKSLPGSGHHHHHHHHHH

[4] = molecular target: T1, Human VSIG4-L-Fc; test: ELISA, Fab P.E. 1:5 on coated antigen;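 further: mouse Fab P.E. samples in 1% skimmed milk PBS, bound to antigen-coated wells for 1 h at room temperature, read as absorbance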
[5] = molecular target: T3, Human VSIG4-S-Fc (human); test: ELISA, Fab P.E. 1:5 on coated antigen;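 further: mouse Fab P.E. samples in 1% skimmed milk PBS, bound to antigen-coated wells for 1 h at room temperature, read as absorbance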
T3 construct: short isoform ECD fused to human Fc1; also called hVSIG4-S

[6] = molecular target: T4, Cynomolgus Monkey VSIG4-L-His (cynomolgus monkey); test: ELISA, Fab P.E. 1:5 on coated antigen;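 further: mouse Fab P.E. samples in 1% skimmed milk PBS, bound to antigen-coated wells for 1 h at room temperature, read as absorbance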
T4 construct: ECD with His tag; also called cyVSIG4-L; cyno VSIG4-L-His
T4 chain: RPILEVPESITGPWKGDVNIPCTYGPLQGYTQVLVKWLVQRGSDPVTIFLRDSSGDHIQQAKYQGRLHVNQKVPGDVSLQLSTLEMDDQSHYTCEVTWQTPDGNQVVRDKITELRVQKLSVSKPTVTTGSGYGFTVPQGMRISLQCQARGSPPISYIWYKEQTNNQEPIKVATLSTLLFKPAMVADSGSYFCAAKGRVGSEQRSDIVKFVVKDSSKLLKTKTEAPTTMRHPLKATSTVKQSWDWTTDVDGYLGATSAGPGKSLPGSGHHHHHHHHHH

[7] = molecular target: T5, Human VSIG4-S-His (human, UniProt Q9Y279 20-283); test: BLI (Octet), IgG on AHC sensor, antigen 100 nM
T5 construct: short isoform ECD with His tag; also called hVSIG4-S; VISG4-S-His
T5 sequence: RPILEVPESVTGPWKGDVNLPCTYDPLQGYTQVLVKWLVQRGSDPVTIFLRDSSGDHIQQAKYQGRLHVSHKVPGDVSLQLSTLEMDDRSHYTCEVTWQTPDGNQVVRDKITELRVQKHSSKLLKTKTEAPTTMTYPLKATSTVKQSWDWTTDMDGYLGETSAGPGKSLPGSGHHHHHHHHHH

[8] = molecular target: T2, Human VSIG4-L-His; test: BLI (Octet), IgG on AHC sensor, antigen 100 nM
[9] = molecular target: T4, Cynomolgus Monkey VSIG4-L-His; test: BLI (Octet), IgG on AHC sensor, antigen 100 nM
[10] = molecular target: T1, Human VSIG4-L-Fc; test: BLI binning on hVSIG4-L-Fc, competitor 14D12 first;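 further: normalized to binding of second antibody without first competitor antibody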
[11] = molecular target: T1, Human VSIG4-L-Fc; test: BLI binning on hVSIG4-L-Fc, competitor 14C05 first;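 further: normalized to binding of second antibody without first competitor antibody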
[12] = molecular target: T6, Human VSIG4-L-CHO (human VSIG4 long isoform on CHO-K1 cells) (human, UniProt Q9Y279 20-399); test: flow cytometry (FJB), 200 nM mAb, huVSIG4-L CHO-K1 over parental CHO-K1
T6 construct: also called hVSIG4-L (flow cytometry)
T6 sequence: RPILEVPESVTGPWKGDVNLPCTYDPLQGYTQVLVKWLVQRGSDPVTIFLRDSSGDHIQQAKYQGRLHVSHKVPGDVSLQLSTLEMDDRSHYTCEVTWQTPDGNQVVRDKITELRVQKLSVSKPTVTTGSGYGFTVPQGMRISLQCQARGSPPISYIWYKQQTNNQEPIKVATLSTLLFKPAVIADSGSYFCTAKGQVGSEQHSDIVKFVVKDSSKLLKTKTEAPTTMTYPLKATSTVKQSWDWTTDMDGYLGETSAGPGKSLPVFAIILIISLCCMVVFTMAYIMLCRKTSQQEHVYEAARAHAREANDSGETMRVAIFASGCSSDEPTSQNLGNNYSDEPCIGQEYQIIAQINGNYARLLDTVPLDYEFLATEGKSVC

[13] = molecular target: T1, Human VSIG4-L-Fc; test: ligand blocking of iC3b, IgG
[14] = molecular target: T1, Human VSIG4-L-Fc; test: BLI binning on hVSIG4-L-Fc, competitor 15A06 first;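 further: normalized to binding of second antibody without first competitor antibody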
[15] = molecular target: T2, Human VSIG4-L-His; test: SPR (FJB)
[16] = molecular target: T4, Cynomolgus Monkey VSIG4-L-His; test: SPR (FJB)
[17] = molecular target: T1, Human VSIG4-L-Fc; test: BLI binning on hVSIG4-L-Fc, competitor 12A08 first;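 further: normalized to binding of second antibody without first competitor antibody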
[18] = molecular target: T2, Human VSIG4-L-His; test: BLI, IgG on AHC sensor, antigen 100 nM
[19] = molecular target: T4, Cynomolgus Monkey VSIG4-L-His; test: BLI, IgG on AHC sensor, antigen 100 nM
[20] = molecular target: T1, Human VSIG4-L-Fc; test: BLI binning on hVSIG4-L-Fc, competitor 16E03 first;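 further: normalized to binding of second antibody without first competitor antibody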
[21] = molecular target: T1, Human VSIG4-L-Fc; test: ligand blocking of C3b, IgG
[22] = molecular target: T1, Human VSIG4-L-Fc; test: BLI binning on hVSIG4-L-Fc, competitor 15C04 first;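 further: normalized to binding of second antibody without first competitor antibody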
[23] = molecular target: T1, Human VSIG4-L-Fc; test: ELISA, IgG 50 nM on coated antigen;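 further: Mouse-human chimeric IgG4 antibodies incubated 1 h on plate-coated VSIG4 proteins, bound IgG detected with HRP-labelled anti-human IgG, irrelevant antibody and protein as specificity controls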
[24] = molecular target: T3, Human VSIG4-S-Fc; test: ELISA, IgG 50 nM on coated antigen;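 further: Mouse-human chimeric IgG4 antibodies incubated 1 h on plate-coated VSIG4 proteins, bound IgG detected with HRP-labelled anti-human IgG, irrelevant antibody and protein as specificity controls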
[25] = molecular target: T7, Mouse VSIG4-His (mouse); test: ELISA, IgG 50 nM on coated antigen;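 further: Mouse-human chimeric IgG4 antibodies incubated 1 h on plate-coated VSIG4 proteins, bound IgG detected with HRP-labelled anti-human IgG, irrelevant antibody and protein as specificity controls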
T7 construct: ECD with His tag; also called mVSIG4
T7 chain: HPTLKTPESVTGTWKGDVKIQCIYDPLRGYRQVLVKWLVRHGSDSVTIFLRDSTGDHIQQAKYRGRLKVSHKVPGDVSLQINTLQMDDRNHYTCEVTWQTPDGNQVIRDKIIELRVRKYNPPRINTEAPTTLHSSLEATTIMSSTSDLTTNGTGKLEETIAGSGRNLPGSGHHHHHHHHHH

[26] = molecular target: T4, Cynomolgus Monkey VSIG4-L-His; test: ELISA, IgG 50 nM on coated antigen;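 further: Mouse-human chimeric IgG4 antibodies incubated 1 h on plate-coated VSIG4 proteins, bound IgG detected with HRP-labelled anti-human IgG, irrelevant antibody and protein as specificity controls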
[27] = molecular target: T1, Human VSIG4-L-Fc; test: ligand competition ELISA (FJB), blocked ligand C3b
[28] = molecular target: T6, Human VSIG4-L-CHO (human VSIG4 long …); test: flow cytometry (FJB), 200 nM mAb, huVSIG4-L CHO-K1 cells
[29] = molecular target: T1, Human VSIG4-L-Fc; test: BLI binning on hVSIG4-L-Fc, competitor 16E10 first;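 further: normalized to binding of second antibody without first competitor antibody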
[30] = molecular target: T1, Human VSIG4-L-Fc; test: ligand competition ELISA (FJB), blocked ligand iC3b
[31] = molecular target: T1, Human VSIG4-L-Fc; test: BLI binning on hVSIG4-L-Fc, competitor 12A12 first;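 further: normalized to binding of second antibody without first competitor antibody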
[32] = molecular target: T1, Human VSIG4-L-Fc; test: BLI binning on hVSIG4-L-Fc, competitor 15C03 first;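 further: normalized to binding of second antibody without first competitor antibody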
[33] = molecular target: T6, Human VSIG4-L-CHO (human VSIG4 long …); test: flow cytometry, CHO-K1 cells expressing hVSIG4-L
[34] = molecular target: T1, Human VSIG4-L-Fc; test: BLI binning on hVSIG4-L-Fc, competitor 13H11 first;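 further: normalized to binding of second antibody without first competitor antibody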

T1 sequence (chain, as listed by the source limits assumed): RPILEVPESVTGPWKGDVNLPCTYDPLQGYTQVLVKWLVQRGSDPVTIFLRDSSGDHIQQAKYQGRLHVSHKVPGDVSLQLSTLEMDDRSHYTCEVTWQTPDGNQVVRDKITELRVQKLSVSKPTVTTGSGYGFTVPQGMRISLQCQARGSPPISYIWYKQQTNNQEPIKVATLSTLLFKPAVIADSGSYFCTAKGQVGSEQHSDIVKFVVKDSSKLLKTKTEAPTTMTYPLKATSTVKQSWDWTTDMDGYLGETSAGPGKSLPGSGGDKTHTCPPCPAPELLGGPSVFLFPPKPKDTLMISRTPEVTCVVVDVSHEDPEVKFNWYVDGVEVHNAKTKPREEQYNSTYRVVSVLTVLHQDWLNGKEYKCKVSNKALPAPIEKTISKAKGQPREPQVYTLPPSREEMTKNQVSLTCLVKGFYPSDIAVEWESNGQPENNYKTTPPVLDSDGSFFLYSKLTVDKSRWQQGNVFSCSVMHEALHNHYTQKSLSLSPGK

B1: 12A12 mouse Fab (periplasmic extract) (Fab, V domains shown)
VH: QVQMKQSGAELAKPGASVKMSCKASGYTFTNYWMHWVKQRPGQGLEWIGYINPSTGYTDYNQNFKDRATLTADKSSSTAYMQLSSLTSEDSAVYYCIRGSDYYGRDYWGQGTTLTVSS
VL: DIQMTQTTSSLSASLGDRVTISCRASQDISNYLNWYQQKPDGTLKLLIYYTSRLHSGVPSRFSGSGSGTDYSLTISNLEQEDIATYFCRQGNTLPWTFGGGTKLEIK
notes: mouse Fab with C-terminal His6-c-myc tag
Percent Blocking C3b [1]: 74.8%
Percent Blocking iC3b [2]: 76.5%
koff [3]: 0.0038 s⁻¹
ELISA OD450 [4]: 4.42 OD450
ELISA OD450 [5]: 4.18 OD450
ELISA OD450 [6]: 4.37 OD450

B2: 12A08 mouse Fab (periplasmic extract) (Fab, V domains shown)
VH: EVMLVESGGGLVKPGGSLKLSCAASGFTFDDFYMYWVRQTPEKRLEWVASISDGGTYTYYPDSVKGRFTISRDNAKNTLYLQLSSLKSEDTAMYYCARGVDKYYYAMDYWGQGTSVTVSS
VL: QILLTQSPAIMSASPGEKVTITCSASSSVSYMHWFQQKPGTSPKLWIYSTSNLASGVPARFSGSGSGTSYSLTISRMEAEDAATYYCQQRSSYPLTFGAGTKLELK
notes: as for B1
Percent Blocking C3b [1]: 57.6%
Percent Blocking iC3b [2]: 53.4%
koff [3]: 0.013 s⁻¹
ELISA OD450 [4]: 4.45 OD450
ELISA OD450 [5]: 4.09 OD450
ELISA OD450 [6]: 4.27 OD450

B3: 14D12 mouse/human chimeric IgG4 (S228P) kappa (antibody, V domains shown)
VH: QIQLVQSGPELKKPGETVKISCKASGYTFTNYGMNWVKQTPGKGLKWMGLINTYTGEPTYADDFKGRFAFSLETSASTAYLQINNLKNEDMATYFCARERIYGYLHYFDYWGQGTTLTVSS
VL: DVVMTQTPASLAVSLGQRATISCKASQSVDYDGDSYMNWYQQKPGQPPKLLIYAASNLESGIPARFSGSGSGTDFTLNIHPVEEEDAATYYCQQSNEDPRTFGGGTKLEIKR
Kd [7]: 28.7 nM
Kd [8]: 21.5 nM
Kd [9]: 16.1 nM
normalized maximum binding nm shift [10]: 0.08 normalized
normalized maximum binding nm shift [11]: 0.12 normalized
Binding (200 nM) Fold-Over-Parental [12]: 112 fold
Percent Blocking iC3b [13]: 98%
normalized maximum binding nm shift [14]: 0.75 normalized
Kd [15]: 10.5 nM
Kd [16]: 4.4 nM
normalized maximum binding nm shift [17]: 0.73 normalized
KD relative to parental chimera [18]: 1 fold
KD relative to parental chimera [19]: 1 fold
normalized maximum binding nm shift [20]: 0.68 normalized
Percent Blocking C3b [21]: 97%
normalized maximum binding nm shift [22]: 0.8 normalized
ELISA OD450 [23]: 4.53 OD450
ELISA OD450 [24]: 3.43 OD450
ELISA OD450 [25]: 0.05 OD450
ELISA OD450 [26]: 4.52 OD450
IC50 [27]: 0.8 nM
Binding (200 nM) MFI [28]: 36400 MFI
normalized maximum binding nm shift [29]: 0.93 normalized
IC50 [30]: 0.6 nM
normalized maximum binding nm shift [31]: 0.75 normalized
normalized maximum binding nm shift [32]: 0.59 normalized
EC50 [33]: 2.8 nM
normalized maximum binding nm shift [34]: 0.69 normalized

B4: 13H11 mouse Fab (periplasmic extract) (Fab, V domains shown)
VH: QIQLVQSGPELKKPGETVKISCKASGYTFENFGMNWVKQAPGKGLKWMGWINTYTGEATYADDFKGRFAFSLETSASTAYLQINNLKNEDTATYFCARDGGFRHFDVWGAGTTVTVSS
VL: ETTVTQSPASLSVATGEKVTIRCITSTDIDDDMNWYQQKPGEPPKLLISEGNTLRPGVPSRFSSSGYGTDFVFTIENMLSEDVADYYCLQSDNLPLTFGAGTKLELK
notes: as for B1
Percent Blocking C3b [1]: 46.9%
koff [3]: 0.045 s⁻¹
ELISA OD450 [4]: 4.33 OD450
ELISA OD450 [5]: 0.06 OD450
ELISA OD450 [6]: 4.34 OD450

B5: 15A06 mouse Fab (periplasmic extract) (Fab, V domains shown)
VH: QVQMKQSGPSLVRPSQTLSLTCSVTGDSITSGYWNWIRKFPGDKFEYLGYISYSGFTYYNPSLKSRVSITRDTSKNQYYLQLHSVTTEDTATYYCASSKYGSSLGFPYWGQGTLVTVSA
VL: DVVMTQTPLSLPVSLGDQASISCRSSQSLVHSNGNTYLHWYLQKPGQSPKLLIYKVSNRFSGVPDRFSGSGSGTDFTLKISRVEAEDLGVYFCSQSTHVPFTFGSGTKLEIK
notes: as for B1
Percent Blocking iC3b [2]: 1.4%
koff [3]: 0.0015 s⁻¹
ELISA OD450 [4]: 4.42 OD450
ELISA OD450 [5]: 0.06 OD450
ELISA OD450 [6]: 0.05 OD450

B6: 15C03 mouse Fab (periplasmic extract) (Fab, V domains shown)
VH: EVKLLESGPGLVKPSQSLSLTCTVTGYSITSDYAWNWIRQFPGNKLEWMGYISYSGSTRYNPSLKSRISITRDTSNNQFFLQLNSVTTEDTATYYCARSGYAAMDYWGQGTSVTVSS
VL: ENVLTQSPAIMSASPGEKVTMTCRASSSVSSSYLHWYQQKSGASPKLWIYSTSNLASGVPARFSGSGSGTSYSLTISSVEAEDAATYYCQQYSGYPLTFGSGTKLEIK
notes: as for B1
Percent Blocking C3b [1]: 42.7%
koff [3]: 0.0076 s⁻¹
ELISA OD450 [4]: 4.2 OD450
ELISA OD450 [5]: 4.05 OD450
ELISA OD450 [6]: 0.05 OD450
